Reference: patent US20220041697A1 (NEW YORK UNIVERSITY, published 2022)

Assays:
Assay in all cases: binding of antibody dilutions to peptides (FIG. 1)
[1] = target: T1, Tau 386-408 peptide phosphorylated only on serine 404 (phosphoserine at position 19 of SEQ ID NO: 1 (Ser404 of SEQ ID NO: 25); serine 11 not phosphorylated)
T1 construct: also called P-Ser404; P-Ser404 peptide

[2] = target: T2, non-phosphorylated Tau peptide (Tau386-408) (none (serines 11 and 19 of SEQ ID NO: 1 not phosphorylated))
T2 construct: also called No-P; non-phosphorylated peptide
T2 sequence (peptide, as listed by the source): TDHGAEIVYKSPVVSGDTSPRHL

[3] = target: T3, Peptide Tau 386-408[phospho-serine396,404] (phosphoserine at positions 11 and 19 of SEQ ID NO: 1 (Ser396 and Ser404 of SEQ ID NO: 25))
T3 construct: For immunisation it was conjugated to KLH via a cysteine residue; also called P-Ser396, P-Ser404; diphosphorylated peptide

binding result [1]: binds
binding result [2]: binds
binding result [3]: binds
B1: Tau mAb 8B2D1 (antibody, V domains shown)
VH: EVQLQQSGPELVKPGASVKMSCKASGYTFTSYVIHWVKQKPGQGLEWIGYIYPYNDGTIYNEKFKGKATLTSDTSSSTVYMELISLTAEDSAVYWCVRERDNYGVYWGQGTTLTVSS
VL: DVLLTQTPLSLPVSLGDQASISCRSSQSIVHSNGNTYLEWYLQKPGQSPELLIYKVSNRFYGVPDRFSGSGSGTDFTLKISRVEAEDLGVYYCFQDSHIPYTFGGGTRLEIK
notes: Mouse (BALB/c) hybridoma monoclonal antibody; also called monoclonal antibody 8B2D1; anti-Tau 8B2D1 mAb
